According to patent US12622945B2, “Hard tissue therapeutics” (OrthoTrophix, Inc., priority 2020, dated 2026):
Where no end group is shown, it is not given here.

Assays:
[1] = tested on: human and rat bone cells; details: human and rat/murine orthologues; cited from earlier work
[2] = molecular target: T1, integrin αvβ3 (Homo sapiens, UniProt P05106+P06756); assay: Competition ELISA with biotinylated RGD-Knottin, integrin αvβ3; assay type: binding
T1 construct: purchased R&D Systems
Method: All integrins used in this study contained the human sequence.
The binding assay was conducted as a competition ELISA using biotinylated Knottin and unlabeled peptides.
Methods were carried out as follows, as described by Bernhagen 2017.
Incubation and washing buffers were prepared using standard protocols. Recombinant human integrins were purchased from R&D Systems (Minneapolis, U.S.A.). Strep-HRP (Streptavidin-Horseradish Peroxidase conjugate, Southern-Biotech, Birmingham, U.S.A.), and rabbit anti-mouse-HRP (Southern-Biotech, Birmingham, U.S.A.) were diluted 1:200-1:1000 for ELISA experiments.
All integrins were dissolved according to manufacturer's protocol and stored in 25 μL aliquots of 100 μg/mL in PBS. For coating of one 96 well plate, 2 aliquots were thawed and dissolved in 9.95 mL of cold coating buffer for a 0.5 μg/mL solution.
After coating, the plates were subsequently sealed and stored at 4° C. overnight. […]
The following washing and incubation steps were performed according to manuscript. […] Peptides, whose integrin binding strength were to be determined, were mixed in 12 different concentrations (each 3-fold dilutions) with a fixed concentration of RGD-Knottin (both in PBS, 15 min, room temperature), followed by incubation of the plates with peptide/RGD-Knottin solutions.
Substrate buffer incubation and absorbance measurements were identical to that for binding ELISA. […]

[3] = tested on: subjects with knee OA; details: cited from earlier work
[4] = molecular target: T2, recombinant human integrin αvβ3 (human, UniProt P06756 31-992; P05106 27-718); assay: competition ELISA; coated integrin, biotinylated RGD-Knottin as competitor
T2 construct: Bought from R&D Systems

[5] = molecular target: T3, recombinant human integrin α3β1 (human, UniProt P26006 33-991; P05556 21-728); assay: binding study with Knottin; reference integrin αvβ3
T3 construct: Bought from R&D Systems; Named only for the initial screening

[6] = molecular target: T4, recombinant human integrin α9β1 (human, UniProt Q13797 30-981; P05556 21-728, limits assumed); assay: as above
T4 construct: Bought from R&D Systems; Named only for the initial screening

[7] = molecular target: T5, recombinant human integrin α6β1 (human, UniProt P23229 24-1011; P05556 21-728, limits assumed); assay: as above
T5 construct: Bought from R&D Systems; Named only for the initial screening

[8] = molecular target: T6, recombinant human integrin α5β1 (human, UniProt P08648 42-995; P05556 21-728); assay: as above
T6 construct: Bought from R&D Systems; Named only for the initial screening

[9] = molecular target: T7, recombinant human integrin α4β1 (human, UniProt P13612 34-970; P05556 21-728, limits assumed); assay: as above
T7 construct: Bought from R&D Systems; Named only for the initial screening

[10] = molecular target: T8, recombinant human integrin α10β1 (human, UniProt O75578 23-1122; P05556 21-728, limits assumed); assay: as above
T8 construct: Bought from R&D Systems; Named only for the initial screening

[11] = molecular target: T9, recombinant human integrin αvβ6 (human, UniProt P06756 31-992; P18564 22-707); assay: competition ELISA with Knottin; reference integrin αvβ3
T9 construct: Bought from R&D Systems

[12] = molecular target: T10, recombinant human integrin α2β1 (human, UniProt P17301 30-1132; P05556 21-728); assay: as above
T10 construct: Bought from R&D Systems

[13] = molecular target: T11, recombinant human integrin αvβ1 (human, UniProt P06756 31-992; P05556 21-728); assay: as above
T11 construct: Bought from R&D Systems

[14] = molecular target: T12, recombinant human integrin αvβ8 (human, UniProt P06756 31-992; P26012 43-684); assay: as above
T12 construct: Bought from R&D Systems

[15] = molecular target: T13, recombinant human integrin α1β1 (human, UniProt P56199 29-1141; P05556 21-728); assay: as above
T13 construct: Bought from R&D Systems

[16] = molecular target: T9, recombinant human integrin αvβ6; assay: integrin binding screen / competition ELISA with RGD-Knottin
[17] = molecular target: T10, recombinant human integrin α2β1; assay: as above
[18] = molecular target: T11, recombinant human integrin αvβ1; assay: as above
[19] = molecular target: T12, recombinant human integrin αvβ8; assay: as above
[20] = molecular target: T13, recombinant human integrin α1β1; assay: as above
[21] = molecular target: T3, recombinant human integrin α3β1; assay: initial integrin binding screen
[22] = molecular target: T4, recombinant human integrin α9β1; assay: initial integrin binding screen
[23] = molecular target: T5, recombinant human integrin α6β1; assay: initial integrin binding screen
[24] = molecular target: T6, recombinant human integrin α5β1; assay: initial integrin binding screen
[25] = molecular target: T7, recombinant human integrin α4β1; assay: initial integrin binding screen
[26] = molecular target: T8, recombinant human integrin α10β1; assay: initial integrin binding screen
[27] = molecular target: T2, recombinant human integrin αvβ3; assay: competition ELISA; coated integrin, biotinylated RGD-Knottin as competitor (FIG. 2)
[28] = molecular target: T2, recombinant human integrin αvβ3; assay: competition ELISA; coated integrin, biotinylated RGD-Knottin as competitor (FIG. 4)
[29] = molecular target: T9, recombinant human integrin αvβ6; assay: competition ELISA with biotinylated RGD-Knottin on coated integrin
[30] = molecular target: T14, recombinant human integrin αvβ5 (human, UniProt P06756 31-992; P18084 24-719); assay: as above
T14 construct: Bought from R&D Systems

[31] = molecular target: T10, recombinant human integrin α2β1; assay: as above
[32] = molecular target: T11, recombinant human integrin αvβ1; assay: as above
[33] = molecular target: T12, recombinant human integrin αvβ8; assay: as above
[34] = molecular target: T13, recombinant human integrin α1β1; assay: as above

Question: For PDLLVRGDNDVPPFSGDGQHFMH [SEQ ID No: 14], which “biological activities in the bone cells of the other species” value [1] is on record?
Answer: interchangeably show biological activities in the bone cells of the other species

Question: For “GFQDSLDSNRQDPGTDPEKGIDF-NH2 [SEQ ID No: 15]”, which “binding affinity (IC50) of the peptide and integrin αvβ3” value ([2]; peptide concentration giving 50% inhibition of biotinylated knottin binding, triplicate) is on record?
Answer: no binding affinity within the limits of the binding assay

Question: What about the IC50 ([2]; read-out: binding affinity (IC50) of the peptide and integrin αvβ3) of the same molecule?
Answer: > 3.94 mM

Question: For `N#Cc1c(N(CC(=O)[O-])CC(=O)[O-])sc(C(=O)[O-])c1CC(=O)[O-].[Sr+2].[Sr+2]` [strontium ranelate], which “risk of myocardial infarction” value ([3]; in vivo) is on record?
Answer: increase the risk of myocardial infarction

Question: With `O=P(O)(O)C(O)(Cc1cccnc1)P(=O)(O)O` [risedronate] as the molecule, how does the effects on pain ([3]; n=2483, Bingham 2006) read?
Answer: favoring placebo over active drug

B1: peptide of SEQ ID No: 10 (TPX-100) (peptide)
peptide: TDLQERGDNDISPFSGDGQPFKD-NH2
notes: also called human orthologue
Question: Which IC50 [4] does the source give for B1 here?
Answer: ~30 µg/mL

Question: What about the “fold by which the binding affinity to αvβ3 is higher than to this integrin” value (“fold by which the binding affinity” below) [5] of the same molecule?
Answer: ≥ 300 times

Question: And the “fold by which the binding affinity” value [6]?
Answer: ≥ 300 times

Question: And the “fold by which the binding affinity” value [7]?
Answer: ≥ 300 times

Question: And the “fold by which the binding affinity” value [8]?
Answer: ≥ 300 times

Question: What about the “fold by which the binding affinity” value [9] of the same molecule?
Answer: ≥ 300 times

Question: What about the “fold by which the binding affinity” value [10] of the same molecule?
Answer: ≥ 300 times

Question: What about the “fold by which the binding affinity” value [11] of the same molecule?
Answer: ≥ 300 times

Question: What about the “fold by which the binding affinity” value [12] of the same molecule?
Answer: ≥ 300 times

Question: And the “fold by which the binding affinity” value [13]?
Answer: ≥ 300 times

Question: What about the “fold by which the binding affinity” value [14] of the same molecule?
Answer: ≥ 300 times

Question: And the “fold by which the binding affinity” value [15]?
Answer: ≥ 300 times

Question: Does B1 bind [16]?
Answer: no binding

Question: Does B1 bind [17]?
Answer: no binding

Question: Does B1 bind [18]?
Answer: no binding

Question: Does B1 bind [19]?
Answer: no binding

Question: Does B1 bind [20]?
Answer: no binding

Question: Does B1 bind [21]?
Answer: no binding

Question: Does B1 bind [22]?
Answer: no binding

Question: Does B1 bind [23]?
Answer: no binding

Question: Does B1 bind [24]?
Answer: no binding

Question: Does B1 bind [25]?
Answer: no binding

Question: Does B1 bind [26]?
Answer: no binding

Question: What about the IC50 [27] of the same molecule?
Answer: ~33 µg/mL

B2: peptide of SEQ ID No: 12 (canine orthologue of TPX-100) (peptide)
peptide: PDLQERGDNDISPFSGDGQPFKD-NH2
Question: For B2, which “fold by which the binding affinity” value [5] is on record?
Answer: ≥ 300 times

Question: What about the “fold by which the binding affinity” value [6] of the same molecule?
Answer: ≥ 300 times

Question: What about the “fold by which the binding affinity” value [7] of the same molecule?
Answer: ≥ 300 times

Question: And the “fold by which the binding affinity” value [8]?
Answer: ≥ 300 times

Question: And the “fold by which the binding affinity” value [9]?
Answer: ≥ 300 times

Question: And the “fold by which the binding affinity” value [10]?
Answer: ≥ 300 times

Question: And the IC50 [28]?
Answer: ~23 µg/mL

Question: What about the “fold by which the binding affinity” value [11] of the same molecule?
Answer: ≥ 300 times

Question: And the “fold by which the binding affinity” value [12]?
Answer: ≥ 300 times

Question: And the “fold by which the binding affinity” value [13]?
Answer: ≥ 300 times

Question: What about the “fold by which the binding affinity” value [14] of the same molecule?
Answer: ≥ 300 times

Question: And the “fold by which the binding affinity” value [15]?
Answer: ≥ 300 times

B3: scrambled peptide of SEQ ID No: 15 (peptide)
peptide: GFQDSLDSNRQDPGTDPEKGIDF-NH2
notes: Synthetic, made on a Rink-amide resin; also called scramble peptide
Question: Does B3 bind [29]?
Answer: no binding

Question: Does B3 bind [30]?
Answer: no binding

Question: Does B3 bind [31]?
Answer: no binding

Question: Does B3 bind [32]?
Answer: no binding

Question: Does B3 bind [33]?
Answer: no binding

Question: Does B3 bind [34]?
Answer: no binding
